Experimental findings from EP1506972A1 (Genentech Inc., dated 2005) are described below.

Where only a bound is given, the exact number is not on record here.

The target in assay [1] is IGF-I G19A (G1S-A70V background) displayed on phage (human; bacteriophage M13). Nature of the assay: competitive phage ELISA, soluble IGFBP-3 vs coated IGFBP-3.
The target of assay [2] is IGF-I R21A (G1S-A70V background) displayed on phage (human; bacteriophage M13). Described as above.
Assay [3] addresses IGF-I V44A (G1S-A70V background) displayed on phage (human; bacteriophage M13). The description is as above.
Assay [4] deals with IGF-I Y24A (G1S-A70V background) displayed on phage (human; bacteriophage M13). The assay is described as above.
Assay [5] has as its target Ala(1-3)-IGF-I, triple alanine mutant of the first three N-terminal amino acids, displayed on phage (human; bacteriophage M13). Described as above.
Assay [6] has as its target IGF-I T41A (G1S-A70V background) displayed on phage (human; bacteriophage M13). The description is as above.
Assay [7] concerns the target IGF-I G42A (G1S-A70V background) displayed on phage (human; bacteriophage M13). Described as above.
The target in assay [8] is IGF-I I43A (G1S-A70V background) displayed on phage (human; bacteriophage M13). Described as above.
Assay [9] has as its target IGF-I Q40A (G1S-A70V background) displayed on phage (human; bacteriophage M13). The assay is described as above.
Assay [10] addresses IGF-I S34A (G1S-A70V background) displayed on phage (human; bacteriophage M13). Described as above.
Assay [11] deals with IGF-I R37A (G1S-A70V background) displayed on phage (human; bacteriophage M13). Described as above.
Assay [12] concerns the target IGF-I F23A (G1S-A70V background) displayed on phage (human; bacteriophage M13). The description is as above.
Assay [13] deals with IGF-I D20A (G1S-A70V background) displayed on phage (human; bacteriophage M13). The assay is described as above.
The target of assay [14] is IGF-I N26A (G1S-A70V background) displayed on phage (human; bacteriophage M13). The assay is described as above.
In assay [15] the target is IGF-I S35A (G1S-A70V background) displayed on phage (human; bacteriophage M13). The assay is described as above.
Assay [16] deals with IGF-I G22A (G1S-A70V background) displayed on phage (human; bacteriophage M13). The assay is described as above.
Assay [17] deals with IGF-I F25A (G1S-A70V background) displayed on phage (human; bacteriophage M13). The assay is described as above.
Assay [18] deals with T1, human IGFBP-1 (human) (UniProt P08833).
T1 sequence (looked up): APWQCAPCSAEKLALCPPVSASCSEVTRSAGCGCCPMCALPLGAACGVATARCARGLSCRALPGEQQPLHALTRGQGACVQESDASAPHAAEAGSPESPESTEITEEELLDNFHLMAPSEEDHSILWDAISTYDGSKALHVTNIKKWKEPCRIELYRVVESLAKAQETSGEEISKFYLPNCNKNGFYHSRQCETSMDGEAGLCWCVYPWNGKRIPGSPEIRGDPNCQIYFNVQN
In words: BIAcore.

In assay [19] the target is recombinant human IGFBP-3 (human) (UniProt P17936). In words: BIAcore. (SPR reads the build-up and loss of mass on a sensor chip optically.)
Chain of recombinant human IGFBP-3 (human) (P17936 28-291 limits assumed): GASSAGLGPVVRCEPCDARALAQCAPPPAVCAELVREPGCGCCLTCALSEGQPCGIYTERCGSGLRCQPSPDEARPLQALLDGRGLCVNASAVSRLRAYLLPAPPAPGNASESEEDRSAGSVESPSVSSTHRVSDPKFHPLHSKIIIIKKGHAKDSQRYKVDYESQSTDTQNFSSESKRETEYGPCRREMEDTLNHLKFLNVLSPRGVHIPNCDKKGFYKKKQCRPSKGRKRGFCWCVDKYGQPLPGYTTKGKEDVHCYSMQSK
Assay [20] deals with T2, IGF-I F49A (G1S-A70V background) displayed on phage (human; bacteriophage M13).
T2 chain: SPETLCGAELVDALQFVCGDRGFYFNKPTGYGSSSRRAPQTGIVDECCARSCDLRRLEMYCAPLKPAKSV
Nature of the assay: competitive phage ELISA, soluble IGFBP-1 vs coated IGFBP-1. The conditions noted are these: remark: other sources report otherwise.

Consider “recombinant human IGFBP-3 (from UniProt P17936 28-291)”, for which the IC50 stood at 0.9 nM in [1]; 0.58 nM in assay [2]; 1.03 nM in assay [3]; 2.53 nM in assay [4]; 1.12 nM in assay [5]; 0.43 nM in [6]. Also, the IC50 in assay [7] came out at 0.53 nM; in [8], 1.17 nM; in assay [9], 0.56 nM; in [10], 1.65 nM; in [11] it was 0.75 nM; in assay [12], 2.18 nM. In addition, the IC50 is 1.11 nM in assay [13]; 0.9 nM in [14]; 0.47 nM in [15]; 2.07 nM in assay [16]; 3.69 nM in [17]. For the same molecule, the relative IC50 (IC50mut/IC50 G1S-A70V) in [1] came to 1.2 fold; in assay [2] it was 0.8 fold; in [3], 1.4 fold; in assay [4], 3.4 fold; in assay [5], 1.5 fold; in assay [6], 0.6 fold. Also, the relative IC50 (IC50mut/IC50 G1S-A70V) came to 0.7 fold in [7]; 1.6 fold in assay [8]; 0.7 fold in assay [9]; 2.2 fold in assay [10]; 1 fold in assay [11]; 2.9 fold in assay [12]. Also, the relative IC50 (IC50mut/IC50 G1S-A70V) in [13] was 1.5 fold; in assay [14], 1.2 fold; in [15], 0.6 fold; in assay [16], 2.8 fold; in assay [17], 4.9 fold.
Turning to “R36A IGF-I (soluble, purified) (from UniProt P05019 49-118) (ligand)”, the KD(mutant)/KD(IGF-I) in assay [18] came out at 1.1 fold; in assay [19], 0.8 fold.
The matching figures for “G1S/A70V IGF-I (soluble, purified) (from UniProt P05019 50-117) (ligand)”: 1.1 fold and 1.5 fold.
In the case of “P39A IGF-I (soluble, purified) (from UniProt P05019 49-118) (ligand)”, the KD(mutant)/KD(IGF-I) in assay [18] was found to be 1 fold; in assay [19], 1.5 fold.
The matching figures for “F16A IGF-I (soluble, purified) (from UniProt P05019 49-118) (ligand)”: 25 fold and 6.9 fold.
The matching figures for “T4A IGF-I (soluble, purified) (from UniProt P05019 49-118) (ligand)”: 6.9 fold and 2.1 fold.
“F25A IGF-I (soluble, purified) (from UniProt P05019 49-118) (ligand)”: the KD(mutant)/KD(IGF-I) worked out at 25 fold in [18] and 5.1 fold in assay [19].
With “V11A IGF-I (soluble, purified) (from UniProt P05019 49-118) (ligand)”, the KD(mutant)/KD(IGF-I) amounted to 5.1 fold in [18] and 4.5 fold in assay [19].

B1: human IGFBP-1, P08833 26-259 (protein, UniProt P08833 26-259, looked up)
chain: T1 sequence (looked up)
On to B1, for which the relative IC50 (IC50mut/IC50 G1S-A70V) in assay [20] was > 100 fold.

A word on the IC50: it is the midpoint of a concentration-inhibition curve. High values mean weaker potency in that assay, low ones greater potency in that assay.
